# Measurements reported in publication PMC2360737.
# Legend:
# [1] = target: p27 (human (endogenous in A2780)) (UniProt P46527); test: co-IP; endogenous proteins in crude lysates of A2780 cells, untreated or treated with 0.6 uM DAP (up to 36 h; also after control or p21 siRNA); immunoprecipitated with anti-CDK4, anti-CDK2, anti-p21 or anti-p27 antibody, immunoblotted
# [2] = target: p21 (human (endogenous in A2780)) (UniProt P38936); test: as above
# Sequence of UniProt P38936 (P38936 whole entry): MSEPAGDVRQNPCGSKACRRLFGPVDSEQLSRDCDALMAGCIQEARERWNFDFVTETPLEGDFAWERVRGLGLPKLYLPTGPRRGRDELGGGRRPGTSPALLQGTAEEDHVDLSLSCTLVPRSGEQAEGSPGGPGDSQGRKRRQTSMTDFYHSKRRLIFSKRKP
# Sequence of cyclin E (P24864 whole entry): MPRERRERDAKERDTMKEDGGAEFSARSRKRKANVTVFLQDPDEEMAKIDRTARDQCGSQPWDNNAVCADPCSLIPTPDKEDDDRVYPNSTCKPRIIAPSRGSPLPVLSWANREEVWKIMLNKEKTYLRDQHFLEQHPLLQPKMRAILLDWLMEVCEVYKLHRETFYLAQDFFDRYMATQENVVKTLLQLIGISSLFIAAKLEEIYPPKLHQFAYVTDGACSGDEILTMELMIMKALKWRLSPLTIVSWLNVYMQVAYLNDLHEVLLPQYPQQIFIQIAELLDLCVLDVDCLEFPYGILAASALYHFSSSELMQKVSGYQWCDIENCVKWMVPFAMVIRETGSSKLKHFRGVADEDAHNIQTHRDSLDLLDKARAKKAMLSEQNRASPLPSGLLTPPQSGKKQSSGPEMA
# Sequence of UniProt P46527 (P46527 whole entry): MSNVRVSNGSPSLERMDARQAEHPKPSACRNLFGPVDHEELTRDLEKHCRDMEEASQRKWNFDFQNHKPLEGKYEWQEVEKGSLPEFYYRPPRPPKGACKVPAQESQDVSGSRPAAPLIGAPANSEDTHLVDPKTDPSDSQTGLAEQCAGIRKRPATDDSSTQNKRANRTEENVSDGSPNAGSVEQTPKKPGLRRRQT
substance,measurement,setting,value
cyclin E (from UniProt P24864 1-410) (natural protein),percent of CDK2/cyclin E complex bound,[1],25%
same,fold of cyclin E co-precipitated with p21 against that with p27,[2],3 fold
same,percent of CDK2/cyclin E complex bound,[2],75%
